Measurements: IntAct's records for PubMed 22841714

B1: ADP-ribosylation factor 6 (Mus musculus), P62331 (parent)
chain: MGKVLSKIFGNKEMRILMLGLDAAGKTTILYKLKLGQSVTTIPTVGFNVETVTYKNVKFNVWDVGGQDKIRPLWRHYYTGTQGLIFVVDCADRDRIDEARQELHRIINDREMRDAIILIFANKQDLPDAMKPHEIQEKLGLTRIRDRNWYVQPSCATSGDGLYEGLTWLTSNYKS
partner: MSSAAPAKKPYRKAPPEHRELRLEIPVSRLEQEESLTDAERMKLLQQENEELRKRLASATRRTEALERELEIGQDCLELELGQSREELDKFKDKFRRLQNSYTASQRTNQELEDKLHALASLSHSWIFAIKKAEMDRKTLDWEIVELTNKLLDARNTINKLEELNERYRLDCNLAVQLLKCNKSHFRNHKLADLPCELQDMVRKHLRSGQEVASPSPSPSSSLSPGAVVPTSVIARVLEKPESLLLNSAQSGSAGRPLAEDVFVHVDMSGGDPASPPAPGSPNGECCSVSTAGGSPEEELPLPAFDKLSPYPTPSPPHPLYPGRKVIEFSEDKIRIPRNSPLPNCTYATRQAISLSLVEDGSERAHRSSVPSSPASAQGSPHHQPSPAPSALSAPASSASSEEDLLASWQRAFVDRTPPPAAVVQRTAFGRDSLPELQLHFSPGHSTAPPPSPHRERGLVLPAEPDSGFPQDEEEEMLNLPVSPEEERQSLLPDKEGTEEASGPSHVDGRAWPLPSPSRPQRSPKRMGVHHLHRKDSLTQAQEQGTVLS

Variants of: B1
Conditions: with tjap1_mouse Tjap1, Q9DCD5

| Variant | effect of a mutation on the interaction |
| --- | --- |
| T44N | disrupting interaction |
